# Data published in patent US6919086B1, “Graminae pollen allergen mutants for specific immunotherapy, and production and use of the same” (Merck Patent Gesellschaft mit, priority 1997, dated 2005).
# Numbering of substitutions follows the chain as printed. Names and notes keep the numbering of the source.
# B1: DM1: deletion mutant of rPhl p 5b (ΔK50-P132, D49→L), SEQ ID NO 91 (protein)
# chain: ADAGYAPATPAAAGAAAGKATTEEQKLIEDINVGFKAAVAAAASVPAALAGELQIIDKIDAAFKVAATAAATAPADDKFTVFEAAFNKAIKESTGGAYDTYKCIPSLEAAVKQAYAATVAAAPQVKYAVFEAALTKAITAMSEVQKVSQPATGAATVAAGAATTAAGAASGAATVAAGGYKV
# B2: rPhl p 5b point mutant PM1 (N32D, D49L, K50A) (protein)
# chain: ADAGYAPATPAAAGAAAGKATTEEQKLIEDIDVGFKAAVAAAASVPAALAFKTFEAAFTSSSKAAAAKAPGLVPKLDAAYSVAYKAAVGATPEAKFDSFVASLTEALRVIAGALEVHAVKPVTEEPGMAKIPAGELQIIDKIDAAFKVAATAAATAPADDKFTVFEAAFNKAIKESTGGAYDTYKCIPSLEAAVKQAYAATVAAAPQVKYAVFEAALTKAITAMSEVQKVSQPATGAATVAAGAATTAAGAASGAATVAAGGYKV
# B3: rPhl p 5b point mutant PM3 (A13C) (protein)
# chain: B2 chain with A13C, D32N, L49D, A50K
# B4: rPhl p 5b deletion mutant DM3 (deletion A154-T177, A220T) (protein)
# chain: ADAGYAPATPAAAGAAAGKATTEEQKLIEDINVGFKAAVAAAASVPAADKFKTFEAAFTSSSKAAAAKAPGLVPKLDAAYSVAYKAAVGATPEAKFDSFVASLTEALRVIAGALEVHAVKPVTEEPGMAKIPAGELQIIDKIDAAFKVAATAAGGAYDTYKCIPSLEAAVKQAYAATVAAAPQVKYAVFEAALTKTITAMSEVQKVSQPATGAATVAAGAATTAAGAASGAATVAAGGYKV
# System: Phl p 5b-reactive T cell clones (TCCs) from allergic patients
# Assay: Proliferative reaction of Phl p 5b-reactive T cell clones ([3H]-thymidine incorporation)
# Type: cell-based, human
# Conditions: T cell-reactive region A; final concentration 0.3 μM
# Experimental: 40 ml of heparinized blood were obtained from each patient. Peripheral mononuclear cells (PBMC) were then isolated from this blood sample by means of the customary method using density gradient centrifugation. Analogous cell isolations were carried out at a later stage when it was necessary to obtain irradiated autologous antigen-presenting cells (APC) for characterizing the TCL and TCC further. After the PBMC had been counted, TCL which reacted to group 5 allergens in vitro were established as follows and as has already been described in detail elsewhere (Lit. 1): in each well of 24-well microculture plates, from 1.5 to 2.0×10^6 PBMC in 1 ml of culture medium (UltraCulture) were stimulated for 7 days in the added presence of natural Phl p5 allergens (in each case 10 μg/well) which had been purified by immunoaffinity chromatography. A total of from 8 to 10 of these cultures were set up. The isolation of Phl p5 by means of immunoaffinity chromatography has been described in detail (Lit. 2). At the end of the 7 days of culture, IL-2 (from 10 to 20 IU/well) was added to the cell cultures for a further 5 to 7 days. All the individual cultures were then pooled and the T cell blasts were enriched by means of density gradient centrifugation; the TCL which were obtained were then tested in a specific lymphocyte proliferation test (see Lit. 1 as well). For this, 2×10^4/ml TCL blasts were in each case cultured with 5×10^4/ml irradiated autologous APCs in triplicate samples in 96-well microculture plates. 10-20 μg of Phl p5 allergen were added as the specific antigen stimulus. After 56 hours of incubation, ^3H-labelled thymidine (1 μCi/well) was pipetted into the microcultures. After a further 16 hours, the radioactivity which had been incorporated into the proliferating T cell blasts was measured in a beta counter (Matrix 96). The results were calculated, as the arithmetic mean of the multiple samples, in counts per minute (cpm). The criterion for the quality of the TCL was the stimulation index, which was obtained by relating the cpm values with Phl p5 addition to those without Phl p5 addition.
# After a TCL had been cloned (see below), the specificity of the isolated TCCs were determined as has just been described. Stimulation indices of at least 5 were rated as being positive for the TCCs. The determination of T cell epitopes for defining the T cell-reactive regions on group 5 allergens was also carried out using specific proliferation tests, with 1-2 μg of synthesized dodecapeptide/ml being used for this purpose in each case (see below).
# The reactivity of the recombinant Ph1 p 5b mutants was tested on established T cell clones (TCCs) of known specificity. The TCCs derive from patients who are allergic to grass pollen (see Ex. 1) and are directed against the T cell-reactive regions A (FIG. 7), B (FIG. 8) and C (FIG. 9). The T cell reactivity was measured by stimulating the clones to proliferate.
Molecule,Incorporation of [3H]-thymidine into TCC CB 2 (stimulation index class),Incorporation of [3H]-thymidine into TCC CB 14 (stimulation index class),Incorporation of [3H]-thymidine into TCC JR 13 (stimulation index class),Incorporation of [3H]-thymidine into TCC JR 15 (stimulation index class)
B1,+++ (>10 (+++)),+++ (>10 (+++)),+++ (>10 (+++)),+++ (>10 (+++))
B2,+++ (>10 (+++)),+++ (>10 (+++)),+++ (>10 (+++)),++ (5-10 (++))
B3,+++ (>10 (+++)),,+++ (>10 (+++)),
B4,,,+++ (>10 (+++)),+++ (>10 (+++))

# Same assay, conditions: T cell-reactive region B; final concentration 0.3 μM
Molecule,Incorporation of [3H]-thymidine into TCC DW8 (stimulation index class),Incorporation of [3H]-thymidine into TCC UZH2 (stimulation index class)
B1,+ (1-2 (+)),+++ (>10 (+++))
B2,+ (1-2 (+)),+++ (>10 (+++))
B3,,+++ (>10 (+++))
B4,+ (1-2 (+)),+++ (>10 (+++))

# Same assay, conditions: T cell-reactive region C; final concentration 0.3 μM
Molecule,"Incorporation of [3H]-thymidine, stimulation index SI, 1st exp.","Incorporation of [3H]-thymidine, stimulation index SI, 2nd exp.","Incorporation of [3H]-thymidine, stimulation index SI, 3rd exp.","Incorporation of [3H]-thymidine, stimulation index class (last column, no head)"
B1,8.6,6.2,4.4,++ (5-10 (++))
B2,,,1.1,− (<1 (−))
B3,7.4,5.9,4.5,++ (5-10 (++))
B4,9.8,6.9,4.4,++ (5-10 (++))

# Biological target: specific IgE on basophils from the blood of allergic patient
# Assay: cell-based or functional assay
# Conditions: not given
row,Molecule,"concentration required to bring about a 30% histamine release from basophils, against wild type rPh1 p 5b [fold higher]"
1,B4,3

# System: basophils from the blood of an allergic patient
# Assay: Histamine release from basophils
# Type: cell-based, human
# Conditions: not given
# Experimental: Apart from the binding of the allergen to the spec. IgE, the allergen-induced, IgE-mediated release of histamine by allergic effect or cells is of pathophysiological importance for the allergic reaction (side effect). The reactivity of the effector cells (basophils and mast cells) and the epitope specificity of the IgE antibodies which are bound by way of FcεRI are also of importance in this context. For this reason, the modified recombinant allergen variants are tested for their ability to induce histamine release by the degranulation of IgE-loaded basophils which are isolated from the blood of allergic patients.
# Before the histamine release test was carried out, the basophilic leucocytes from the EDTA blood of an allergic patient ([…]) were first of all enriched by means of dextran sedimentation and then adjusted to a final concentration of 100,000 basophils/ml. In order to release histamine from the basophils, 200 μl of the cell suspension were in each case incubated, at 37° C. for 40 min, with 50 μl of antigen solution. For this, the rPh1 […] p 5b and the mutants were employed in varying concentrations (of 10^−5-10^−12 M). The histamine which was released was determined in the respective supernatants using the Pharmacia methylhistamine RIA in accordance with the manufacturer's instructions.
row,Molecule,"Concentration required to bring about a 30% histamine release, fold higher than wild type rPhl p 5b [fold]"
1,B1,20
2,B4,3
